From patent US20250352661A1 (MYTHIC THERAPEUTICS, published 2025)
Residue numbers refer to the chain shown, from its start. Names and notes keep the numbering of the source.

T1: LRRC15 on the surface of LRRC15+ cells (SAOS-2, U87MG) (UniProt Q8TF66 22-581, limits assumed)
T1 sequence (looked up): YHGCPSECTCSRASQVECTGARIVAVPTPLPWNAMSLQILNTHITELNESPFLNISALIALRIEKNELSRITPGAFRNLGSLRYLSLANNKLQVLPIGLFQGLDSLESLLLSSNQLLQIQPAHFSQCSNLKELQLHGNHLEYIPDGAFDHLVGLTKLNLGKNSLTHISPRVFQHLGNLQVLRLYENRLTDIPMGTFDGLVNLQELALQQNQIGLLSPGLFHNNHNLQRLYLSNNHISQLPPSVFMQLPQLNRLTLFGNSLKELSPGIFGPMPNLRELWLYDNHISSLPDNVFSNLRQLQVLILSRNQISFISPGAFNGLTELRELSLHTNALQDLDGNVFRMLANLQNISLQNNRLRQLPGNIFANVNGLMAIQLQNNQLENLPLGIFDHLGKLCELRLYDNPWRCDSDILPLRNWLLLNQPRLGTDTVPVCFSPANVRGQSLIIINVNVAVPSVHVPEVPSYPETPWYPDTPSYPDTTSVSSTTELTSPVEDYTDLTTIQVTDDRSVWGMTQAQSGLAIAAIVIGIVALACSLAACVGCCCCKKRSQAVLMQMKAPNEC

T2: Human LRRC15 Protein, His Tag (Acro Biosystems) (human, UniProt Q8TF66 22-538, limits assumed)
T2 construct: not shown: His tag
T2 sequence (looked up): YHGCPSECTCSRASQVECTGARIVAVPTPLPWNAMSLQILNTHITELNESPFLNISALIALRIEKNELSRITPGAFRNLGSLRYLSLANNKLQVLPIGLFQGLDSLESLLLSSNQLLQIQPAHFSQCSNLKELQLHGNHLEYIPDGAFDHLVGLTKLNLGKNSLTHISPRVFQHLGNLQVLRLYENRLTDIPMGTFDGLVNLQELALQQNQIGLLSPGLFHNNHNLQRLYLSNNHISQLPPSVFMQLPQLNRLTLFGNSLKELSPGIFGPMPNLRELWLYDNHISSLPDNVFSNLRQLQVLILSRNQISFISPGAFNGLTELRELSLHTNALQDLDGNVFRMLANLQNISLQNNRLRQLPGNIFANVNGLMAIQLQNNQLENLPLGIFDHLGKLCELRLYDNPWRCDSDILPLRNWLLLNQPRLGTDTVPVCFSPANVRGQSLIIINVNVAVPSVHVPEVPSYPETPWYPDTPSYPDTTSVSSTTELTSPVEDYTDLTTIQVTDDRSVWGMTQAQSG

B1: MYT8416 (antibody, V domains shown)
VH: EVQLVESGGGLVQPGGSLRLSCTASGLDFRRTNYICWVRQAPGKGLEWVGCIYIADVVHYYASWAKGRFTFSRDTSKNTVYLQMNSLRAEDTAVYYCARGADGGFVYGMDLWGQGTLVTVSS
VL: EIVMTQSPSTLSASVGDRVIITCQASQSIGNYLSWYQQKPGKAPKRLIYSASTLPSGVPSRFSGSGSGAEFTLTISSLQPDDFATYYCQNNYHLAGYGHPFGQGTKLTVL
B2: MYT9496 (antibody, V domains shown)
VH: EVQLVESGGGLVQPGGSLRLSCTASGFSFSSSHWICWVRQAPGKGLEWVGCIYAGSIGSTYYASWAKGRFTISRDTSKNTVYLQMNSLRAEDTAVYYCARADNDIYNYYFNLWGQGTLVTVSS
VL: EIVMTQSPSTLSASVGDRVIITCQASENIYNYLAWYQQKPGKAPKLLIYYASTLASGVPSRFSGSGSGAEFTLTISSLQPDDFATYYCQSGYVSKSSTFGQGTKLTVL
notes: also called hu29F1 VH P102D
B3: MYT9724 (antibody, V domains shown)
VH: B2 VH with D102P, F110E
VL: B2 VL
notes: also called hu29F1 VH F110E
B4: MYT9722 (antibody, V domains shown)
VH: B2 VH with D102P, Y108E
VL: B2 VL
notes: also called hu29F1 VH Y108E
B5: MYT9726 (antibody, V domains shown)
VH: B2 VH with D102P, L112E
VL: B2 VL
notes: also called hu29F1 VH L112E
B6: MYT9725 (antibody, V domains shown)
VH: B2 VH with D102P, N111E
VL: B2 VL
notes: also called hu29F1 VH N111E
B7: MYT9498 (antibody, V domains shown)
VH: B2 VH with D102P, D104A
VL: B2 VL
notes: also called hu29F1 VH D104A
B8: MYT9505 (antibody, V domains shown)
VH: B2 VH with D102P, N111D
VL: B2 VL
notes: also called hu29F1 VH N111D
B9: MYT9716 (antibody, V domains shown)
VH: B2 VH with D102E
VL: B2 VL
notes: also called hu29F1 VH P102E
B10: MYT9506 (antibody, V domains shown)
VH: B2 VH with D102P, L112D
VL: B2 VL
notes: also called hu29F1 VH L112D

How the values were obtained:
[1] = target: T1, LRRC15 on the surface of LRRC15+ cells …; test: cell-based or functional assay
[2] = target: T1, LRRC15 on the surface of LRRC15+ cells …; test: cell-based or functional assay; remark: listed apart in the source
[3] = target: T1, LRRC15 on the surface of LRRC15+ cells …; test: cell-based or functional assay; remark: listed apart in the source
[4] = target: T2, Human LRRC15 Protein, His Tag (Acro …); test: BLI; dissociation pH 7.4 black, pH 5.4 grey [2/2); D00020 FIG. 4B (2/2]
Protocol: Desirable mutations were transferred to a humanized framework (humanized, MYT 8387-8411). After allowing for four days of protein expression, cell culture supernatants were collected, quantified by SDS-PAGE analysis, and the pH dependence of the variant was evaluated using biolayer interferometry (BLI) on an Octet RED 96e instrument. Briefly, cell culture supernatants were diluted based on qualitative expression level of the variant determined by visual examination of SDS-PAGE gels, 5 μL of cell culture supernatant was diluted into 195 μL of 1×PBST, pH 7.4 for high expressors, 25 μL of cell culture supernatant was diluted into 175 μL of 1×PBST, pH 7.4 for medium expressors and 100 μL of cell culture supernatant was diluted into 100 μL of 1×PBST, pH 7.4 for low expressors for loading onto the sensor tips. The resulting diluted supernatants were then captured on an anti-human Fc sensor (Forte Bio). A baseline was established using 1×PBST (50 mM Potassium Phosphate Buffer+150 mM NaCl+0.05% Tween 20) pH 7.4, and the […] was associated with 50 nM of LRRC15 (Human LRRC15 Protein, His Tag, Acro Biosystems) in 1×PBST pH 7.4 for 120 sec to generate an association curve. In the dissociation phase, the antibody-antigen complex on the sensor was exposed to 1×PBST pH 7.4 or pH 5.4, for 300 sec. Association and dissociation phase curves were examined for the starting ABPC antibody (with no substitutions) and each corresponding antibody variant at pH 5.4 and pH 7.4 to inform on two criteria: a) enhanced dissociation (i.e., higher koff values) at pH 5.4 due to histidine substitution compared to the starting ABPC, (with no substitutions), and b) reduced dissociation at pH 7.4 (i.e., lower koff values) compared to pH 5.4 in the antibody variant itself and with the starting ABPC (with no substitutions).
The methods of Examples 9-10 were applied to RabMAb clone 29F1 (rabbit VH SEQ ID NO: 572 and VL SEQ ID NO: 578; and humanized VH SEQ ID NO: 576 and VL SEQ ID NO: 582).

[5] = target: T2, Human LRRC15 Protein, His Tag (Acro …); test: BLI; dissociation pH 7.4 black, pH 5.4 grey [2/2); D00026 FIG. 6B (2/2]

| Binder | binding result [4] | binding result [5] | further results |
| --- | --- | --- | --- |
| B1 | – | – | Cytotoxicity against SAOS-2 cells, Fold over MYT5438 (mAb complexed with MMAF-conjugated secondary antibody, CTG assay) [1]: 1.13 fold over MYT5438; Internalization in SAOS-2 cells (10 nM, 24 hours), FOB = fold over background (IgG control) [2]: 2.71 fold over background (IgG control); Internalization in SAOS-2 cells (10 nM, 24 hours), FOS = fold over samrotamab [2]: 1.05 fold over samrotamab; Internalization in U87MG cells (10 nM, 24 hours), FOB = fold over background (IgG control) [3]: 3.05 fold over background (IgG control); Internalization in U87MG cells (10 nM, 24 hours), FOS = fold over samrotamab [3]: 2.39 fold over samrotamab |
| B2 | binds | – | – |
| B3 | – | binds | – |
| B4 | – | binds | – |
| B5 | – | binds | – |
| B6 | – | binds | – |
| B7 | binds | – | – |
| B8 | binds | – | – |
| B9 | – | binds | – |
| B10 | binds | – | – |
